This note sets out measurements from the RNAGym collection of RNA variant scans (doi:10.7554/elife.80360).

First the molecules themselves.
B1: Hammerhead Ribozyme (parent)
chain: ACCGGAUGUGCUUUCCGGUCUGAUGAGUCCGUGAGGACGAAACAG

The variants in this data set derive from B1. The experiment in a line: self-cleavage, relative activity (ratio to wild type); higher = more cleavage; co-transcriptional.
Take U32G A41C: the self-cleavage amounted to 0.459. For U32G A41G, the self-cleavage is 0.299. For U32G A41U, the self-cleavage worked out at 0.318. As to A34U G45A, the self-cleavage was determined as 0.477.

On to A34U G45C, for which the self-cleavage is 0.533.

In the case of A34U G45U, the self-cleavage turned out to be 0.625. On to G33A A37C, for which the self-cleavage stood at 1.03. Regarding G33A A37G, the self-cleavage was determined as 1.28. On to G33A A37U, for which the self-cleavage came to 0.727. For the variant A34G G36U, the self-cleavage was 0.419. With A34G G36A, the self-cleavage was 0.51. Turning to A34G G36C, the self-cleavage was 0.276. With U32G G39C, the self-cleavage was found to be 0.497. With U32G G39A, the self-cleavage turned out to be 0.362.

Consider U32G G39U, for which the self-cleavage is 0.317. Under U32C G45A stands 0.776; under U32C G45U, 0.635. U32C G45C: the self-cleavage was 0.425. As for A34G G35C, the self-cleavage was determined as 0.771. Under A34G G35U stands 0.847; under A34G G35A, 0.675; under U32G A42U, 0.375.

As for U32G A42C, the self-cleavage was found to be 0.275. For U32G A42G the value was 0.357; for G35A C38G, 0.387. For G35A C38A the value was 0.482; for G35A C38U, 0.587. For the variant G35A A42U, the self-cleavage was found to be 0.29. As to G35A A42G, the self-cleavage is 0.252. As to G35A A42C, the self-cleavage is 0.354. Turning to U32G G33U, the self-cleavage is 0.838. As for U32G G33A, the self-cleavage amounted to 0.843. Consider U32G G33C, for which the self-cleavage stood at 0.966. In the case of A34U G36U, the self-cleavage is 0.565. Consider A34U G36C, for which the self-cleavage came out at 0.406. Turning to A34U G36A, the self-cleavage was 0.437.

Take G35A A44U: the self-cleavage amounted to 0.46. In the case of G35A A44G, the self-cleavage was 0.837.

Turning to G35A A44C, the self-cleavage came out at 0.42. Under A34G G45C stands 0.551. For A34G G45A the value was 0.589; for A34G G45U, 0.544; for G33C C38U, 1.12. For G33C C38A the value was 0.493; for G33C C38G, 0.567. On to G33A G36A, for which the self-cleavage came out at 0.894. Take G33A G36C: the self-cleavage came to 0.58.

Consider G33A G36U, for which the self-cleavage was found to be 0.613. On to G33C G45A, for which the self-cleavage was found to be 0.873. For G33C G45U, the self-cleavage was determined as 0.874. For G33C G45C the value was 0.46. With G35A G45A, the self-cleavage is 0.452.

In the case of G35A G45C, the self-cleavage amounted to 0.437. As to G35A G45U, the self-cleavage was 0.471. For the variant G33U A40G, the self-cleavage was 0.4. Take G33U A40U: the self-cleavage is 0.391. On to G33U A40C, for which the self-cleavage stood at 0.726. For the variant G33U G35A, the self-cleavage was 0.774.

As to G33U G35U, the self-cleavage was found to be 0.914. In the case of G33U G35C, the self-cleavage was 0.964. As to A34U A42U, the self-cleavage was determined as 0.306.

On to A34U A42C, for which the self-cleavage came out at 0.3. Turning to A34U A42G, the self-cleavage amounted to 0.258. For U32G G35A the value was 0.473; for U32G G35U, 0.603.

For U32G G35C, the self-cleavage came to 0.626. On to G33U G39C, for which the self-cleavage was found to be 0.464. In the case of G33U G39A, the self-cleavage was 0.341. As for G33U G39U, the self-cleavage was 0.343. For G33U C38G, the self-cleavage worked out at 0.67. Consider G33U C38U, for which the self-cleavage stood at 0.995.

With G33U C38A, the self-cleavage stood at 0.824. For G33A G35U the value was 0.866. As for G33A G35C, the self-cleavage amounted to 0.787. In the case of G33A G35A, the self-cleavage came out at 0.825. In the case of G35A A41C, the self-cleavage came out at 0.32. As for G35A A41G, the self-cleavage was 0.328.

Consider G35A A41U, for which the self-cleavage came out at 0.278.

Regarding G35C C43G, the self-cleavage turned out to be 0.325. On to G35C C43A, for which the self-cleavage came out at 0.352. Take U32G C38A: the self-cleavage is 0.674.

Regarding U32G C38G, the self-cleavage was found to be 0.497.

In the case of U32G C38U, the self-cleavage is 0.559. For G33U A34G the value was 0.752. With G33U A34C, the self-cleavage amounted to 0.895. As to G33U A34U, the self-cleavage came to 0.952.

In the case of U32C G36C, the self-cleavage amounted to 0.553. In the case of U32C G36U, the self-cleavage amounted to 0.73. Under U32C G36A stands 0.718.

With U32C A41G, the self-cleavage is 0.311. As to U32C A41U, the self-cleavage was 0.474. As for G33A A40C, the self-cleavage is 0.792. As to G33A A40G, the self-cleavage turned out to be 0.503. As for G33A A40U, the self-cleavage was determined as 0.525. For the variant A34U A37U, the self-cleavage stood at 0.412. A34U A37G: the self-cleavage worked out at 0.757. Turning to A34U A37C, the self-cleavage worked out at 0.572. For A34U A44G, the self-cleavage worked out at 1.01. For A34U A44U, the self-cleavage was 0.437. On to A34U A44C, for which the self-cleavage was 0.447. As for U32C G33U, the self-cleavage came out at 1.37.

As to U32C G33A, the self-cleavage stood at 0.924. Take U32C G33C: the self-cleavage was 1.15. U32G A34G: the self-cleavage was found to be 0.65.

Turning to U32G A34C, the self-cleavage was 0.805. For U32G A34U the value was 1.19; for G35A A37C, 0.364; for G35A A37U, 0.414. For G35A A37G, the self-cleavage turned out to be 0.58. For G35A C43G the value was 0.353. For G35A C43A the value was 0.322. As for G35A C43U, the self-cleavage is 0.401. On to G33A C38G, for which the self-cleavage is 0.854. In the case of G33A C38A, the self-cleavage stood at 0.608. As for G33A C38U, the self-cleavage worked out at 0.995. On to G33C A37U, for which the self-cleavage came to 0.565. In the case of G33C A37C, the self-cleavage amounted to 0.745. In the case of G33C A37G, the self-cleavage was 0.619. On to G33A G45A, for which the self-cleavage is 0.794. In the case of G33A G45C, the self-cleavage was determined as 0.873. For G33A G45U the value was 0.955; for A34C G35U, 0.58. Regarding A34C G35C, the self-cleavage came out at 0.398. A34C G35A: the self-cleavage was 0.893.

Regarding G35C A37C, the self-cleavage came to 0.504.

For the variant G35C A37U, the self-cleavage stood at 0.517. In the case of G35C A37G, the self-cleavage came to 0.563.

For the variant G33C C43G, the self-cleavage worked out at 0.28. Take G33C C43A: the self-cleavage was 0.314. As to G33C C43U, the self-cleavage was 0.308. On to A34U A40C, for which the self-cleavage worked out at 0.404. With A34U A40U, the self-cleavage is 0.305.

With A34U A40G, the self-cleavage came to 0.304.

G33C G36A: the self-cleavage was 0.491.

Turning to G33C G36C, the self-cleavage was determined as 0.451. With G33C G36U, the self-cleavage was determined as 0.338. Under G35C A41G stands 0.329. For the variant G35C A41U, the self-cleavage amounted to 0.356. As to G35C A41C, the self-cleavage was determined as 0.337. With A34G A40C, the self-cleavage stood at 0.44. Consider A34G A40G, for which the self-cleavage worked out at 0.345. In the case of A34G A40U, the self-cleavage was 0.334. In the case of G35C A42C, the self-cleavage was determined as 0.283.

Consider G35C A42G, for which the self-cleavage came to 0.26. Regarding G35C A42U, the self-cleavage stood at 0.324. As for G35C C38A, the self-cleavage worked out at 0.398. As to G35C C38G, the self-cleavage was determined as 0.376. Take G35C C38U: the self-cleavage came out at 0.67. For the variant G35A G39U, the self-cleavage amounted to 0.328.

Consider G35A G39A, for which the self-cleavage came out at 0.312.

For the variant G35A G39C, the self-cleavage was found to be 0.346. Turning to U32G C43G, the self-cleavage amounted to 0.303. For U32G C43U the value was 0.43; for U32G C43A, 0.256; for G33C A40G, 0.339. Under G33C A40C stands 0.566; under G33C A40U, 0.409; under G33C A42G, 0.346. Under G33C A42C stands 0.268. As for G33C A42U, the self-cleavage is 0.28. In the case of G33A A44U, the self-cleavage turned out to be 0.98. For G33A A44G the value was 1.59; for G33A A44C, 0.673; for G33U, 0.977. Turning to G33A, the self-cleavage is 1.03. On to G33C, for which the self-cleavage is 0.997. For A34G A37C the value was 0.649.
